One substance from article PMC9748371 can be followed below.

This assay concerns the target EGFR^K642G-mEGFP (UniProt P00533). The assay is described as follows: number and brightness.

“And” between values parts separate entries of the source, which are not always exact repeats. Equal entries are not always repeated.

Take “EGFR^K642G-mEGFP (from UniProt P00533) (receptor)”: the apparent brightness BE was 4.11 and 4.73 and 5.53.
